Laboratory results published in PMC4019489 (Molecular Biology of the Cell, 2014).

Target: the molecule itself
Test: SEC

B1: soluble, C-terminally His-tagged extracellular domain of WT JAM-A (junctional adhesion molecule-A) (domain or fragment, UniProt Q9Y624 28-238, looked up)
chain: SVTVHSSEPEVRIPENNPVKLSCAYSGFSSPRVEWKFDQGDTTRLVCYNNKITASYEDRVTFLPTGITFKSVTREDTGTYTCMVSEEGGNSYGEVKVKLIVLVPPSKPTVNIPSSATIGNRAVLTCSEQDGSPPSEYTWFKDGIVMPTNPKSTRAFSNSSYVLNPTTGELVFDPLSASDTGEYSCEARNGYGTPMTSNAVRMEAVERNVGV
stoichiometry N: 2
